Data from US11535650 (RA PHARMACEUTICALS, dated 2022).
Starred links: 1 amine or outer side, 2 acyl side, 3 side chain; linkers in the order of their positions; H or OH if unused. Positions of bridges follow the written chain, without caps; N, C: chain ends. Non-standard residues stand in square brackets, D forms with d. Primed or numbered codes have the meaning given here. No end group written: not given here. Lys‑C8 = N-ε-caprylic lysine, CCCCCCCC(=O)NCCCC[C@H](N[*:1])C(=O)[*:2]; mXylyl(3) = bridging moiety between the two residues given in brackets; mXylyl″ = bridging moiety between the two marked residues; mXylyl = bridging moiety between residues (mXylyl(i,j)); Ala(1H-tetrazol-5-yl) = N[C@@H](Cc1nnn[nH]1)C(=O)O; Trp(7-aza) = N[C@@H](Cc1c[nH]c2ncccc12)C(=O)O; NMeD = CN[C@@H](CC(=O)O)C(=O)O; dPhg = N[C@@H](C(=O)O)c1ccccc1; Chg = N[C@H](C(=O)O)C1CCCCC1; Phg = N[C@H](C(=O)O)c1ccccc1; Tle = CC(C)(C)[C@H](N)C(=O)O; Lys‑C12 = N-ε-lauryl lysine; NMeS = CN[C@@H](CO)C(=O)O; NMeA = CN[C@@H](C)C(=O)O; Pra = C#CC[C@H](N)C(=O)O; Nva = CCC[C@H](N)C(=O)O; Sar = CNCC(=O)O

B1: R3041 (peptide)
peptide: Ac-YEN[Tle]YWEYP[Phg][Nva]-NH2
SMILES: CCC[C@H](NC(=O)[C@@H](NC(=O)[C@@H]1CCCN1C(=O)[C@H](Cc1ccc(O)cc1)NC(=O)[C@H](CCC(=O)O)NC(=O)[C@H](Cc1c[nH]c2ccccc12)NC(=O)[C@H](Cc1ccc(O)cc1)NC(=O)[C@@H](NC(=O)[C@H](CC(N)=O)NC(=O)[C@H](CCC(=O)O)NC(=O)[C@H](Cc1ccc(O)cc1)NC(C)=O)C(C)(C)C)c1ccccc1)C(N)=O
B2: R3028 (peptide)
peptide: Ac-[Tle]Y[Trp(7-aza)]EYP[Phg][Nva]-NH2
SMILES: CCC[C@H](NC(=O)[C@@H](NC(=O)[C@@H]1CCCN1C(=O)[C@H](Cc1ccc(O)cc1)NC(=O)[C@H](CCC(=O)O)NC(=O)[C@H](Cc1c[nH]c2ncccc12)NC(=O)[C@H](Cc1ccc(O)cc1)NC(=O)[C@@H](NC(C)=O)C(C)(C)C)c1ccccc1)C(N)=O
B3: R3001 (peptide)
peptide: Ac-[Nva]CYEN[Tle]Y[Trp(7-aza)]EY[Sar][Nva][NMeS]-NH2
SMILES: CCC[C@H](NC(C)=O)C(=O)N[C@@H](CS)C(=O)N[C@@H](Cc1ccc(O)cc1)C(=O)N[C@@H](CCC(=O)O)C(=O)N[C@@H](CC(N)=O)C(=O)N[C@H](C(=O)N[C@@H](Cc1ccc(O)cc1)C(=O)N[C@@H](Cc1c[nH]c2ncccc12)C(=O)N[C@@H](CCC(=O)O)C(=O)N[C@@H](Cc1ccc(O)cc1)C(=O)N(C)CC(=O)N[C@@H](CCC)C(=O)N(C)[C@@H](CO)C(N)=O)C(C)(C)C

Target: human C5 protein (human, UniProt P01031 19-673; P01031 678-1676)
Assay: cell-based or functional assay

Row | Binder | Avg. IC50, human hemolysis assay (complete human sera)
1 | B1 | 71.3 nM
2 | Ac-C[Tle]Y[Trp(7-aza)]EY[NMeS]HC-NH2 (linker 1-9 via mXylyl) [R3016] | > 13000 nM
3 | Ac-C[Tle]ERFCDVYWEF-NH2 (linker 1-6 via mXylyl″) [R3146] | 107 nM
4 | Ac-[Nva]C[Phg]T[Trp(7-aza)]EY[NMeS]AC[Nva]-NH2 (linker 2-10 via mXylyl) [R3038] | 140 nM
5 | Ac-CAERFCD[Tle]YWEYP[dPhg][Nva]-NH2 (linker 1-6 via mXylyl″) [R3149] | 13.6 nM
6 | Ac-CVERFCA[Tle]Y[Trp(7-aza)]EYP[Phg][Nva]-NH2 (linker 1-6 via mXylyl″) [R3157] | 84.5 nM
7 | B2 | > 10000 nM
8 | MCSERYCEVRWEY-NH2 (linker 2-7 via mXylyl) [R3020] | 24.6 nM
9 | Ac-[Nva]CYEN[Tle]Y[Trp(7-aza)]EYP[Phg][Nva]C-NH2 (linker 2-14 via mXylyl) [R3019] | 1320 nM
10 | Ac-[Nva]C[Phg]TAEY[NMeS]HC[Nva]-NH2 (linker 2-10 via mXylyl) [R3034] | > 50000 nM
11 | Ac-[Nva]CAT[Trp(7-aza)]EY[NMeS]HC[Nva]-NH2 (linker 2-10 via mXylyl) [R3032] | > 10000 nM
12 | Ac-[Nva]C[Phg]A[Trp(7-aza)]EY[NMeS]HC[Nva]-NH2 (linker 2-10 via mXylyl) [R3033] | 131 nM
13 | Ac-CVERFCDVY[Trp(7-aza)]EYP-NH2 (linker 1-6 via mXylyl″) [R3142] | 44.6 nM
14 | Ac-CVERFC[Ala(1H-tetrazol-5-yl)][Tle]Y[Trp(7-aza)]EYP[Chg][Nva]-NH2 (linker 1-6 via mXylyl(3)) [R3168] | 7.5 nM
15 | Ac-CVERACD[Tle]Y[Trp(7-aza)]EYP[Phg][Nva]-NH2 (linker 1-6 via mXylyl″) [R3155] | 1530 nM
16 | Ac-[Nva]C[Phg]T[Trp(7-aza)]EY[NMeS]HC[Nva]P[Nva] (bridge 2-10) [R3040] | > 100000 nM
17 | Ac-[Nva]CYEN[Tle]Y[Trp(7-aza)]ECP[Phg][Nva]-NH2 (linker 2-10 via mXylyl) [R3018] | > 5730 nM
18 | Ac-CVERFCDVYWEF[Pra]-NH2 (linker 1-6 via mXylyl″) [R3147] | 138 nM
19 | Ac-CVARFCD[Tle]Y[Trp(7-aza)]EYP[Phg][Nva]-NH2 (linker 1-6 via mXylyl″) [R3150] | 32 nM
20 | Ac-CAERFCD[Tle]Y[Trp(7-aza)]EYP[dPhg]K-NH2 (linker 1-6 via mXylyl″) [R3162] | 16.5 nM

Row | Binder | Avg. IC50, human hemolysis assay (complete human sera)
21 | Ac-[Nva]CYEN[Tle]YCEYP[Phg][Nva]-NH2 (linker 2-8 via mXylyl) [R3017] | > 100000 nM
22 | Ac-AC[Phg]T[Trp(7-aza)]EY[NMeS]HC[Nva]-NH2 (linker 2-10 via mXylyl) [R3031] | 1090 nM
23 | Ac-CAERFCD[Tle]YWEYP[Phg][Nva]-NH2 (linker 1-6 via mXylyl″) [R3148] | 8.5 nM
24 | Ac-CVEAFCD[Tle]Y[Trp(7-aza)]EYP[Phg][Nva]-NH2 (linker 1-6 via mXylyl″) [R3153] | 175 nM
25 | Ac-CVERACD[Tle]Y[Trp(7-aza)]EYP[dPhg][Nva]-NH2 (linker 1-6 via mXylyl″) [R3156] | > 10000 nM
26 | Ac-CVERFCA[Tle]Y[Trp(7-aza)]EYP[dPhg][Nva]-NH2 (linker 1-6 via mXylyl″) [R3158] | 327 nM
27 | Ac-C[Phg]T[Trp(7-aza)]EY[NMeS]HC-NH2 (linker 1-9 via mXylyl) [R3015] | > 3960 nM
28 | Ac-[Nva]C[Phg]T[Trp(7-aza)]EY[NMeS]HC[Nva]P[Nva]-NH2 (cysteine pairing not given here) [R3022] | > 10200 nM
29 | Ac-[Nva]C[Phg]T[Trp(7-aza)]EY[NMeS]HCA-NH2 (linker 2-10 via mXylyl) [R3039] | 240 nM
30 | Ac-[Nva]C[Phg]T[Trp(7-aza)]EY[NMeA]HC[Nva]-NH2 (linker 2-10 via mXylyl) [R3037] | 276 nM
31 | Ac-[Nva]C[Phg]T[Trp(7-aza)]EA[NMeS]HC[Nva]-NH2 (linker 2-10 via mXylyl) [R3036] | > 50000 nM
32 | Ac-[Nva]C[Phg]T[Trp(7-aza)]AY[NMeS]HC[Nva]-NH2 (linker 2-10 via mXylyl) [R3035] | > 50000 nM
33 | Ac-CAERFCD[Tle]Y[Trp(7-aza)]EYP[Phg][Lys‑C12]-NH2 (linker 1-6 via mXylyl″) [R3164] | 36 nM
34 | Ac-CVERFC[NMeD][Tle]Y[Trp(7-aza)]EYP[Chg][Nva]-NH2 (linker 1-6 via mXylyl″) [R3172] | 12 nM
35 | Ac-CVEAFCD[Tle]Y[Trp(7-aza)]EYP[dPhg][Nva]-NH2 (linker 1-6 via mXylyl″) [R3154] | 592 nM
36 | Ac-CAERFCD[Tle]Y[Trp(7-aza)]EYP[Phg][Lys‑C8]-NH2 (linker 1-6 via mXylyl″) [R3166] | 17.5 nM
37 | Ac-CVARFCD[Tle]Y[Trp(7-aza)]EYP[dPhg][Nva]-NH2 (linker 1-6 via mXylyl″) [R3151] | 165 nM
38 | Ac-CAERFCD[Tle]Y[Trp(7-aza)]EYP[Phg]K-NH2 (linker 1-6 via mXylyl″) [R3161] | 7 nM
39 | CVERFCDGYWEYP ([mXylyl(1,6)]Ac-C-V-E-R-F-C-D-Tbg-Y-W-E-Y-P-NH2) [R3143] | 18.6 nM
40 | B3 | 67.2 nM
